How the values were obtained:
Experiment in all cases: two-hybrid; LexA bait and B42 activating domain prey, galactose-induced; liquid culture, quantitative beta-galactosidase activity of permeabilized cells with reporter pSH18034, wild-type cells (JC470)
[1] = biological target: Nse5-ts2-LexA (S. cerevisiae) (UniProt Q03718)
Nse5-Y123H-LexA = biological target: T1, Nse5-Y123H-LexA (S. cerevisiae, UniProt Q03718 1-556, Y123H); conditions: partners not purified
T1 construct: Nse5 of Saccharomyces cerevisiae, point mutant; also called J-131; source: yeast two-hybrid fusion, galactose-inducible promoter, in S. cerevisiae
T1 sequence (looked up): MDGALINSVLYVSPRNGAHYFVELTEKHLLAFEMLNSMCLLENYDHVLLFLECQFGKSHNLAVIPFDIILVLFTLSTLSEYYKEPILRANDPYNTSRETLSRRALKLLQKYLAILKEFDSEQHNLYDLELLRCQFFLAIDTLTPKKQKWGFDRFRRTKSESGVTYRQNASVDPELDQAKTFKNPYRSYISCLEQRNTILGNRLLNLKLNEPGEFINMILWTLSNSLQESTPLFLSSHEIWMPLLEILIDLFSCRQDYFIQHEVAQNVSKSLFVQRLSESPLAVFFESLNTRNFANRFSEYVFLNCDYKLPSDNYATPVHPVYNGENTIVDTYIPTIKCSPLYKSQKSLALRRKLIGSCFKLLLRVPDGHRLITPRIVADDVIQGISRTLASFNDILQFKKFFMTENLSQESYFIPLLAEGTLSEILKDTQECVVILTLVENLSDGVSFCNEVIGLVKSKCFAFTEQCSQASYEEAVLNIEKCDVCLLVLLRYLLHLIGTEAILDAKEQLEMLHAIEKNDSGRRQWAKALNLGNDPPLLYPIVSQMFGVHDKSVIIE

Nse5-Y111H-LexA = biological target: T2, Nse5-Y111H-LexA (S. cerevisiae, UniProt Q03718 1-556, Y111H); conditions: partners not purified
T2 construct: Nse5 of Saccharomyces cerevisiae, point mutant; also called J-132; source: yeast two-hybrid fusion, galactose-inducible promoter, in S. cerevisiae
T2 sequence (looked up): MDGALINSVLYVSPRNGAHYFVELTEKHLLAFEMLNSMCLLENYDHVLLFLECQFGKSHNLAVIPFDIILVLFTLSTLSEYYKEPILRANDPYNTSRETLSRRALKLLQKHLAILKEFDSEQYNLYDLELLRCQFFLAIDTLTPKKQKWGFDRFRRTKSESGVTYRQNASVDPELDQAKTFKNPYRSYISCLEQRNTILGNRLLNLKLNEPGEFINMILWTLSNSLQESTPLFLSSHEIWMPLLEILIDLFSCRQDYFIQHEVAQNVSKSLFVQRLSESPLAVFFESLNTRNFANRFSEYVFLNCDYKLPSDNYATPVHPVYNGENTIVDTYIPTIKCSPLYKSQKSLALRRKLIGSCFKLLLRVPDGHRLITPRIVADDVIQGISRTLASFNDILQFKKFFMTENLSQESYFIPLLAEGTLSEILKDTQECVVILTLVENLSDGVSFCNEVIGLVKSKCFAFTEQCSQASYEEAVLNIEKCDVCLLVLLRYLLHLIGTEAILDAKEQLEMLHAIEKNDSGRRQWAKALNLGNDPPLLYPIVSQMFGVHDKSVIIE

Nse5-H319Y-LexA = biological target: T3, Nse5-H319Y-LexA (S. cerevisiae, UniProt Q03718 1-556, H319Y); conditions: partners not purified
T3 construct: Nse5 of Saccharomyces cerevisiae, point mutant; also called J-120; source: yeast two-hybrid fusion, galactose-inducible promoter, in S. cerevisiae
T3 sequence (looked up): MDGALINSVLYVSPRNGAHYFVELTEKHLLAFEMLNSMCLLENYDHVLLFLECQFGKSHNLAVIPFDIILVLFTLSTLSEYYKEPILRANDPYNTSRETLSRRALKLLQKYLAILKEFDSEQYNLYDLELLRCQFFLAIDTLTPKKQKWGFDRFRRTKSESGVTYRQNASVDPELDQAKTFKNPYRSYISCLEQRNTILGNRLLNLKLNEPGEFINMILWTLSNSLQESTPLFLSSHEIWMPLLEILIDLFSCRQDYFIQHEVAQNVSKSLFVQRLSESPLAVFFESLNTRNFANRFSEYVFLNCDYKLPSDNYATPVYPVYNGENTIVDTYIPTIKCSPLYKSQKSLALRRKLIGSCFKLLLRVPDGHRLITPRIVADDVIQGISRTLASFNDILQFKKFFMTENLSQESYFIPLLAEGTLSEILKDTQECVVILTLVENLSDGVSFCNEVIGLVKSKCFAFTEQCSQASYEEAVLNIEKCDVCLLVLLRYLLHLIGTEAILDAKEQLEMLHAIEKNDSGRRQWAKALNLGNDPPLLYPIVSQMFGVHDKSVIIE

Nse5-LexA (wild type) = biological target: T4, Nse5-LexA (wild type) (S. cerevisiae, UniProt Q03718 1-556); conditions: partners not purified
T4 construct: Nse5 of Saccharomyces cerevisiae, NSE5 gene cloned into a pEG202-derived bait plasmid; also called Non-Smc element 5; J-038; source: yeast two-hybrid fusion, galactose-inducible promoter, in S. cerevisiae
T4 sequence (looked up): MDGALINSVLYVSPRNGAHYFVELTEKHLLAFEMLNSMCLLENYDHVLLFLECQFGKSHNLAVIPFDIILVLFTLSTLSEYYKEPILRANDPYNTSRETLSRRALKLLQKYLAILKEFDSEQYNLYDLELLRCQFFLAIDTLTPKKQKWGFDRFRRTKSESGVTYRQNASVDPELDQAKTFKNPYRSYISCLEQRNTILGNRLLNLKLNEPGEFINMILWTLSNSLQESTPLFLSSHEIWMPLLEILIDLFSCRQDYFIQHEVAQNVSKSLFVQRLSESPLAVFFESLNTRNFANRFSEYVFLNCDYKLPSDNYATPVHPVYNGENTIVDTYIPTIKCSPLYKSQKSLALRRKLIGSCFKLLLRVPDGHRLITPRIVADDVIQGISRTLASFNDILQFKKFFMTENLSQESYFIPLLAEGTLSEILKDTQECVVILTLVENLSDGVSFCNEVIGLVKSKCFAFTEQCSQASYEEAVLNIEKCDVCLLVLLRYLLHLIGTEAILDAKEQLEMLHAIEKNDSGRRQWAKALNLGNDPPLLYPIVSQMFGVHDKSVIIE

Molecule: Nse6-AD (natural protein)
- two-hybrid signal as percent of wild-type Nse5 [1]: 63%

B1: Smt3-AD (natural protein, S. cerevisiae, UniProt Q12306 1-101, looked up)
chain: MSDSEVNQEAKPEVKPEVKPETHINLKVSDGSSEIFFKIKKTTPLRRLMEAFAKRQGKEMDSLRFLYDGIRIQADQTPEDLDMEDNDIIEAHREQIGGATY
notes: Smt3 (SUMO) of Saccharomyces cerevisiae, SMT3 cloned into a pJG4-6-derived prey vector; also called SUMO; J-043; source: yeast two-hybrid fusion, galactose-inducible promoter, in S. cerevisiae
- two-hybrid signal as percent of wild-type Nse5 (Nse5-Y123H-LexA): 75%
- two-hybrid signal as percent of wild-type Nse5 (Nse5-Y111H-LexA): 18%
- two-hybrid signal as percent of wild-type Nse5 (Nse5-H319Y-LexA): 40%

B2: Ubc9-AD (wild type) (enzyme, S. cerevisiae, UniProt P50623 1-157, looked up)
chain: MSSLCLQRLQEERKKWRKDHPFGFYAKPVKKADGSMDLQKWEAGIPGKEGTNWAGGVYPITVEYPNEYPSKPPKVKFPAGFYHPNVYPSGTICLSILNEDQDWRPAITLKQIVLGVQDLLDSPNPNSPAQEPAWRSFSRNKAEYDKKVLLQAKQYSK
notes: Ubc9 of Saccharomyces cerevisiae, UBC9 cloned into a pJG4-6-derived prey vector; also called E2 conjugating enzyme; J-042; source: yeast two-hybrid fusion, galactose-inducible promoter, in S. cerevisiae
- two-hybrid signal as fold of the interactions with Siz1 and Siz2 (Nse5-LexA (wild type)): ~5 fold

From paper PMC4920195, “Non-Smc element 5 (Nse5) of the Smc5/6 complex interacts with SUMO pathway components” (Biology Open, 2016)
